# Laboratory results taken from patent US20190060239A1, “Technology for the Preparation of Microparticles” (Ansun Biopharma, Inc., priority 2007, published 2019).
# B1: DAS181: fusion protein: heparin (GAG) binding domain of human amphiregulin fused to a catalytic domain of Actinomyces Viscosus sialidase (SEQ ID NO:17) (protein)
# chain: MGDHPQATPAPAPDASTELPASMSQAQHLAANTATDNYRIPAITTAPNGDLLISYDERPKDNGNGGSDAPNPNHIVQRRSTDGGKTWSAPTYIHQGTETGKKVGYSDPSYVVDHQTGTIFNFHVKSYDQGWGGSRGGTDPENRGIIQAEVSTSTDNGWTWTHRTITADITKDKPWTARFAASGQGIQIQHGPHAGRLVQQYTIRTAGGAVQAVSVYSDDHGKTWQAGTPIGTGMDENKVVELSDGSLMLNSRASDGSGFRKVAHSTDGGQTWSEPVSDKNLPDSVDNAQIIRAFPNAAPDDPRAKVLLLSHSPNPRPWSRDRGTISMSCDDGASWTTSKVFHEPFVGYTTIAVQSDGSIGLLSEDAHNGADYGGIWYRNFTMNWLGEQCGQKPAKRKKKGGKNGKNRRNRKKKNP
# modifications: DAS181
# How the values were obtained:
# Format in all cases: physicochemical
# [1] = Microsphere quality score by light microscopy (scoring system of Table 13)
# Procedure: For each of the compounds listed in A-D above, and for DAS181, cocktail solutions containing 2 mg/ml of compound dissolved in an aqueous solvent and various counterions, antisolvents and pH, as listed below, were prepared in a 96-well microtiter plate (0.1 ml cocktail/well) at room temperature. Control solutions contained either solvent or antisolvent alone, with or without the counterion. Cocktails were cooled by placing in a freezer. The chilled plates were transferred onto pre-chilled (−45° C.) shelves of a Millrock Lab Series Lyophilizer, and the vacuum was applied. The frozen cocktail solutions were allowed to lyophilize for 16 hours.
# The lyophilized powders from the bottoms of the wells were transferred onto glass slides and analyzed by light microscopy for appearance. The quality of the product microspheres was scored based on the uniformity of the microspheres, the absence of undesirable non-microsphere particles (glass-like crystalline forms), and the absence of aggregates.
# Arginine was used as counterion and isopropanol was used as antisolvent. Concentrations of each of the cocktail components—the compound, the counterion and the antisolvent—were varied as shown below in Table 15, and the effect on microsphere quality assessed.
# Experiments were performed to evaluate the effect of antisolvent and counterion concentration variation on the formation of microspheres. The peptides leuprolide and somatostatin, and the antibiotics vancomycin and tobramycin, were tested under a variety of conditions for forming microspheres. Samples were analyzed in 96-well plates as described in the previous Examples.
# The experiments were performed using PGI2 and an analog of PGI2, Ciprostene, at a concentration of 2 mg/ml. Cocktail solutions were mixed at room temperature, then cooled by placing in a freezer. The chilled plates were transferred onto pre-chilled (−45° C.) shelves of a Millrock Lab Series Lyophilizer, and the vacuum was applied. The frozen cocktail solutions were allowed to lyophilize for 16 hours.
# Because the resulting prostaglandin microspheres are hygroscopic, upon microsphere initiation, the humidity was maintained at low levels during the experiments, using a nitrogen gas tank attached to the backfill system on the lyophilizer. Each of the reaction tubes was flushed with N2. In addition, the backfill valve on the lyophilizer was left open to continually flush a low humidity atmosphere over the samples. The microscope used to visualize the resulting microspheres was contained within a plastic bag that was continually purged with dry N2. Sample tubes were placed under the bag to equilibrate for approximately 30 seconds, before opening and spreading onto the glass slide.
# The compound/counterion/antisolvent conditions were as follows:
# Experiments were performed with 200 μl of each of the above cocktail solutions in a 2 ml lyophilization bottle (first flash freeze condition), and 25 μl of each of the above cocktail solutions in a PCR tube (second flash freeze condition). The samples in the lyophilization bottles took approximately 15 seconds to freeze. The samples in the PCR tubes took approximately 3 seconds or less to freeze.
# The cocktails in the 96-well plates were cooled by placing in a freezer. The chilled plates were transferred onto pre-chilled (−45° C.) shelves of a Millrock Lab Series Lyophilizer, and a vacuum was applied. The frozen cocktail solutions were allowed to lyophilize for 16 hours.
# The lyophilized powders from the bottoms of the wells were transferred onto glass slides and analyzed by light microscopy for appearance.
# [2] = Microsphere formation, size and appearance by light microscopy
# Procedure: 4) DAS181+5 mM sodium citrate, pH 5.0+10% isopropanol; • Plastic microcentrifuge tubes containing the cocktails with ingredients as described in 1)-4) above were gradually cooled from: • (a) ambient temperature (about 25° C.) to 4° C. by placing the cocktails in a refrigerator, followed by: • (b) cooling to −20° C. by placing the resulting cocktail from (a) in a freezer, followed by: • (c) freezing to −80° C. by placing the resulting cocktail from b) in a freezer.
# Freezing to −80° C. is carried out to remove ingredients from the cocktail other than the microspheres (e.g., solvent, etc.) by freeze-drying. Cocktail 4) was prepared in triplicate, two aliquots in plastic tubes and one in a glass tube. One aliquot (in a plastic tube) was cooled as described above, while the two other aliquots (one in a plastic tube and one in a glass tube) were subjected to snap cooling/freezing by dipping the tubes into liquid nitrogen.
# Upon freezing, all tubes were placed into the lyophilizer and the volatiles (water and isopropanol) were removed by sublimation, leaving the dry pellets.
# The dry pellets recovered from the cocktails treated as described above, were tested for the presence of microspheres.
# (§1) DAS181 was purified and used to prepare microspheres as described above in Example 1 (see cocktail 4)), using a combination of DAS181 protein (10 mg/ml), citrate counterion (sodium citrate, 5 mM) and isopropanol organic solvent (10%, 20% or 30%). The resulting cocktail solutions were cooled from ambient temperature (about 25° C.) to 4° C., followed by cooling to −20° C., followed by freezing to −80° C., as described in Example 1. Upon freezing to −80° C., the tubes are placed in a lyophilizer and the volatiles (water and isopropanol) were removed by sublimation, leaving the dry powder containing microspheres.
# as §1, with “protein (5 mg/ml or 10” for “protein (10”, “isopropanol (5%” for “isopropanol organic solvent (10%, 20%”, “or 20%).” for “or 30%).”, “tubes were” for “tubes are”
# DAS181 was purified and used to prepare microspheres as described above in Example 1 (see cocktail 4)), using a combination of DAS181 protein (10 mg/ml), citrate counterion (sodium citrate; 2 mM, 3 mM or 6 mM) and isopropanol (20%). The cocktail solutions were mixed in glass vials and cooled from +20° C. to −40° C. at a freeze ramp of 1° C. per minute in a Millrock Lab Series lyophilizer. Volatiles (water and isopropanol) were removed by sublimation at 100 mTorr with primary drying at −30° C. for 12 hours and secondary drying at 30° C. for 3 hours, leaving the dry powder containing microspheres.
# To a cocktail solution containing 5 mg/ml DAS181, 5 mM sodium citrate, and 20% isopropanol, was added a surfactant (3.5% w/w lecithin, 0.7% w/w Span-85® (sorbitan trioleate), or 3.5% w/w oleic acid).
# [3] = as above; remark: listed apart in the source
molecule,measurement,setting,value
B1,Microsphere Quality,"[1]; 2 mM Na-Glutamate, 15% n-propanol, pH 4.0",6/7
same,Microsphere Quality,"[1]; 2 mM Na-citrate, 15% isopropanol, pH 4.0",5/6
same,Microsphere Quality,"[1]; 2 mM Na-citrate, 15% n-propanol, pH 5.0",8/9
same,size of microspheres,"[2]; 5 mg/ml DAS181, 5 mM sodium citrate, 20% isopropanol",about 3 microns
same,dispersivity of microspheres formed with surfactant vs without,"[2]; 5 mg/ml DAS181, 5 mM sodium citrate, 20% isopropanol + 3.5% w/w lecithin, 0.7% w/w Span-85 or 3.5% w/w oleic acid",improved dispersivity
same,size of microspheres,"[2]; 10 mg/ml DAS181, 2 mM citrate, 20% isopropanol, +20°C to −40°C at 1°C per minute",1 micron
same,size of microspheres,"[2]; 10 mg/ml DAS181, 3 mM citrate, 20% isopropanol, +20°C to −40°C at 1°C per minute",3 microns
same,size of microspheres,"[2]; 10 mg/ml DAS181, 5 mM sodium citrate, 30% isopropanol, gradual cooling",5-6 microns
same,size of microspheres,"[2]; 10 mg/ml DAS181, 6 mM citrate, 20% isopropanol, +20°C to −40°C at 1°C per minute",5 microns
same,size of microspheres,"[3]; 5 mg/ml or 10 mg/ml DAS181, 5 mM sodium citrate, 5% isopropanol",about 1.5 micron
same,appearance of dry pellet,"[3]; cocktail 2): 10 mg/ml DAS181, 5 mM glycine pH 5.0, 10% isopropanol, gradual cooling",a mixture of glass-like crystals and agglomerates with only a few microspheres
same,appearance of dry pellet,"[3]; cocktail 4) (5 mM sodium citrate, 10% isopropanol) snap-frozen in liquid nitrogen in a glass tube",glass-like crystals and no microspheres
same,appearance of dry pellet,"[3]; cocktail 4) (5 mM sodium citrate, 10% isopropanol) snap-frozen in liquid nitrogen in a plastic tube",agglomerated microspheres
same,appearance of dry pellet,"[3]; cocktails 1) and 3): 10 mg/ml DAS181, 5 mM glycine or 5 mM sodium citrate pH 5.0, no organic solvent",no microspheres were observed
same,appearance of microspheres (microscopy and cascade impaction),"[3]; continuous mode: 10 mg/ml DAS181, 20% isopropanol, 2 mM sodium sulfate, heat exchanger, cooled from about 25°C to about −12°C",uniform microspheres with minimal aggregation and good dispersivity
same,appearance after lyophilization,"[3]; same cocktail not chilled, poured directly into liquid nitrogen",no microspheres were observed
